Test results: patent US20220281962A1

How the values were obtained:
[1] = target: recombinant human tetranectin (TN), residue 22-202 with a C-terminal histidine tag (human) (UniProt P05452); assay: OpenSPR; TN chip with against without mAb8 (29.6 nM) pre-treatment
[2] = target: recombinant human tetranectin (TN), residue 22-202 with a C-terminal histidine tag (human) (UniProt P05452); assay: OpenSPR; TN chip, HMGB1 200 nM, without mAb8 pre-treatment
[3] = target: recombinant human tetranectin (TN), residue 22-202 with a C-terminal histidine tag (human) (UniProt P05452); assay: OpenSPR; TN on the chip, HMGB1 applied (FIG. 5A, Lower Panel, per paragraph 223)
[4] = target: recombinant human tetranectin (TN), residue 22-202 with a C-terminal histidine tag (human) (UniProt P05452); assay: OpenSPR; TN immobilized on the chip, HMGB1 applied at 400, 200, 100 and 25 (no unit on the sheet) [A) lower panel]
[5] = target: recombinant human tetranectin (TN), residue 22-202 with a C-terminal histidine tag (human) (UniProt P05452); assay: OpenSPR; TN chip pre-treated with mAb8 (29.6 nM), HMGB1 200 nM
[6] = target: recombinant human tetranectin (TN), residue 22-202 with a C-terminal histidine tag (human) (UniProt P05452); assay: OpenSPR; TN chip pre-treated with mAb8 (29.6 nM), HMGB1 at various concentrations
[7] = target: recombinant CBP-HMGB1 (rat HMGB1 with a calmodulin-binding peptide tag) (rat) (UniProt P63159); assay: OpenSPR; HMGB1 immobilized on the chip, TN applied at 280, 93, 31 and 10 (no unit on the sheet) [A) upper panel]
[8] = target: recombinant CBP-HMGB1 (rat HMGB1 with a calmodulin-binding peptide tag) (rat) (UniProt P63159); assay: OpenSPR; TN or HMGB1 on the chip (His-tag or carboxyl groups); this end taken as HMGB1 on chip, TN applied (inferred, since 2.88 nM is tied to the TN chip at paragraph 223)

Chain of recombinant CBP-HMGB1 (rat HMGB1 with a calmodulin-binding peptide tag) (rat) (P63159 whole entry, form in doubt): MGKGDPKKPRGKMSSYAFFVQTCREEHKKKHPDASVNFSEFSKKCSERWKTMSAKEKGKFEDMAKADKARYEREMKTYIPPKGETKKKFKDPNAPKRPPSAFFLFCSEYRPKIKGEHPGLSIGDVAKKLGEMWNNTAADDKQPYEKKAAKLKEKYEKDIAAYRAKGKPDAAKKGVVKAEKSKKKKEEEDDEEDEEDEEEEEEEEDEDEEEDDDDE

In the case of “recombinant CBP-HMGB1 (rat HMGB1 with a calmodulin-binding peptide tag) (from UniProt P63159 1-215)”, the fold increase of KD [1] is reported as 6 fold, the SPR response signal [2] is reported as 150 AU and the Kd [3] is reported as 1.21 to 2.88 nM. It also gave a Kd [4] of 2.88 nM, an SPR response signal [5] of 35 AU and a Kd [6] of 18.5 nM.
“recombinant human tetranectin (TN), residue 22-202 with a C-terminal histidine tag (from UniProt P05452 22-202)” was tested, and the Kd [7] was 1.21 nM and the Kd [8] was 1.21 to 2.88 nM.
